# Test results published in the supplement of paper PMC11780869.
# System: Bacillus subtilis
# Test: cleaved RNA product abundance (RNA/gDNA barcode ratio) relative to median wild-type variant (ratio to wild type); higher = more accumulation of the downstream cleavage product
# Summary of the method: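 Truncated aprE or tetM reporter mRNAs with barcoded RNase Y cleavage-site windows, mutagenized from oligos at a 9% error rate, sat in the B. subtilis chromosome. Cells grew in LB at 37°C from OD600 0.0003 to 0.3. Gel-selected cleaved RNA was reverse transcribed and its barcodes sequenced with those from genomic DNA, collapsing by UMI. Cleaved product abundance equals the RNA:gDNA barcode ratio per construct over the median construct with the unmutated site.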
# [1] = experiment (reporter, strain, medium): exp 8a: truncated aprE reporter, strain BJT201 with 2% xylose (RNase J1 expressed), cleavage site: glnRA (positions -5 to +31 mutated)
# [2] = experiment (reporter, strain, medium): exp 2b: truncated aprE reporter, strain BJT200, cleavage site: cggR-gapA (positions -7 to +36 mutated)
# [3] = experiment (reporter, strain, medium): exp 4a: truncated aprE reporter, strain BJT201 with 2% xylose (RNase J1 expressed), cleavage site: cggR-gapA (positions -7 to +36 mutated)
# [4] = experiment (reporter, strain, medium): exp 6: tetM reporter, strain 168, cleavage site: cggR-gapA (positions -7 to +36 mutated)
Sequence,cleaved RNA product abundance [1],cleaved RNA product abundance [2],cleaved RNA product abundance [3],cleaved RNA product abundance [4]
CGACATGTCCCGCTTCTTTCATTAATCCGTTAGCAACTGTTTTGCTATATACAGTTACGTTTTAAGAGGAGGAAT,0.192,,,
ACAGACGAAGGAGCCGCAAAGAAGATATTAAGGCATGAATAATCCCTCAATATAAATATCTCTCACTTATTTAAA,,0.088,0.17,
ACAGACGAAGGAGCCGCAAAGAAGTTTTTAATGGATGAATAATCCCTCAATATAAATATCTCTCACTTATTTAAA,,,0.175,
ACAGACGAAGGAGCCGCAAAAAAGTAATTAAGGGATGAATAATCCCTCAATATAAATATCTCTCACTTATTTAAA,,0.304,0.342,
ACAGACGAAGGAGCCGCAAAGAAGTTATTAAGGGATGAATTATCCCTCAACATAAATATCTCTCACTTATTTAAA,,0.179,0.284,
ACAGACGAAGGAGCCGCAAAGAAGTTATTACGGGATGAATAATCCCTCAATATAAATATTTCTCACTTATTTAAA,,,0.399,
CGACATGTCCCGCTTCTTTCATTATTCCGTTAGCAACTGTTTTGCTATATACATTTACCATTTAAGAGGAGGAAT,1.89,,,
ACAGACGAAGGAGCCGCAAAGAAATAATTAAGCGATGAATAATCCCTCAATATAAATATCTCTCACTTATTTAAA,,,0.166,
ACAGACGAAGGAGCCGCAAAGAAGATATTAAGGGATGAATAAGCCCTCAATATAAATATCTCTCACTTATTTAAA,,,0.432,
ACAGACGAAGGAGCCGCAAAGAAGTTATTAAGGGATCAAAAATCCCTCAATATAAATATCTCTCACTTATTTAAA,,0.804,1.17,
ACAGACGAAGGAGCCGCAAAGAATTTATTAAGGGATGAATAATCCCTCACTATAAATATCTCTCACTTATTTAAA,,0.193,0.283,
ACAGACGAAGGAGCCGCAAAGAAGTTATTAAGGGATGAATAATCCGTCAATATAAATATCTCTCACTTATTTAAA,,0.167,0.234,0.247
ACAGACGAAGGAGCCGCAAAGAAGTTATTAAGTGATGAATAATCCCTCAATATAAATATCTCTCACTTATTTAAA,,0.109,0.126,0.127
ACAGACGAAGGAGCCGCAAAGAAGTTATTAAGGGATTAAAAATCCCTCAATATAAATATCTCTCACTTATTTAAA,,0.941,0.629,
ACAGACGAAGGAGCCGCAAAGAAGCTATTAAGGGATGAATAATCCCTGAATATAAATATCTCTCACTTATTTAAA,,,0.343,
CGACATGTCCCGCTTCTTTCATTAATCCGTTAGTAACTGTTTTGCAATATACATTTACCTTTTAAGAGGAGGAAT,0.316,,,
CGACATGTCCCGCTTCTTTCATTATTCCGTCAGCAACTGTTTTGCTATATACATTTACCTTTTAAGAGGAGGAAT,0.502,,,
CGACATGTCCCGCTTCTTTCATTAATCCGTTAGCAACTGTTTTACTATATATATTTACCTTTTAAGAGGAGGAAT,0.708,,,
CGACATGTCCCGCTTCTTTCATTATTCCGATAGCAACTATTTTGCTATATACATTTACCTTTTAAGAGGAGGAAT,1.85,,,
ACAGACGAAGGAGCCGCAAAGAAGTTATTAAGGGATGAATAATCCCTCTAGATAAATATCTCTCACTTATTTAAA,,,0.266,
ACAGACGAAGGAGCCGCAAAGAAGTTATTAACGAATGAATAATCCCTCAATATAAATATCTCTCACTTATTTAAA,,0.0836,0.0881,
CGACATGTCCCGCTTCTTTCATTAATCCATTAGCAACTGTTTTGCTATATACTTTTACCTTTTAAGAGGAGGAAT,0.253,,,
ACAGACGAAGGAGCCGCAAAGAAGTTATTAAGGGTTGAATAATCCCTGAATATAAATATCTCTCACTTATTTAAA,,,0.299,

Sequence,cleaved RNA product abundance [1],cleaved RNA product abundance [2],cleaved RNA product abundance [3],cleaved RNA product abundance [4]
CGACATGTCCCGCTTCTTTCATTAATCCGTTAGCAACTGTTTTGCTATATGCATTTACCTTTTAAGAGGAGGAAT,0.239,,,
ACAGACGAAGGAGCCGCAAAGAAGTTATTAAGTGATGAATAATACCTCAATATAAATATCTCTCACTTATTTAAA,,0.109,0.0926,
ACAGACGAAGGAGCCGCAAAGAAGTTATTAAGGAATAAATAATCCCTCAATATAAATATCTCTCACTTATTTAAA,,0.0901,0.0868,
CGACATGTCCCGCTTCTTTCATTAATCCGTCAGCAACTGTTTAGCTATATACATTTACCTTTTAAGAGGAGGAAT,0.305,,,
ACAGACGAAGGAGCCGCATAGAAGTTATTAAGGGATGAATAAGCCCTCAATATAAATATCTCTCACTTATTTAAA,,,0.32,
ACAGACGAAGGAGCCGCAAAGAAGTTATTAAGGGTTGAATAAACCCTCAATATAAATATCTCTCACTTATTTAAA,,1.07,0.406,
CGACATGTCCCGCTTCTTTCATTAATCCGTTATCAACTGTTTTGCTATAAACATTTACCTTTTAAGAGGAGGAAT,0.182,,,
ACAGACGAAGGAGCCGCAAAGAAGTTATTAAGGAATGAATAATCCCTCAATATAATTATCTCTCACTTATTTAAA,,,0.117,
ACAGACGAAGGAGCCGCAAAGAAGTTATTAAGGGAAGTATAATCCCTCAATATAAATATCTCTCACTTATTTAAA,,0.599,,
ACAGACGAAGGAGCCGCAAAGAAGTTATTATGGGATGAATAATCCCTCAATATAATTATCTCTCACTTATTTAAA,,,0.294,
ACAGACGAAGGAGCCGCAAAGAAGTTATTAAGAGAAGAATAATCCCTCAATATAAATATCTCTCACTTATTTAAA,,0.0791,0.101,0.107
ACAGACGAAGGAGCCGCAAAGAAGTTATTAAGGGATGAATTATCACTCAATATAAATATCTCTCACTTATTTAAA,,,0.178,
ACAGACGAAGGAGCCGCAAAGAAGTTATTAAGGGATGAATAATCCCTCAGTATAAATATCTCTCACTTATTTAAA,,0.215,0.305,0.259
ACAGACGAAGGAGCCGCAAAGAAGTTATTAAGAGATGAATAATCCCTCAAGATAAATATCTCTCACTTATTTAAA,,,0.112,
ACAGACGAAGGAGCCGCAAAGAAGTTATTAAGGTATGAATAATCCCTCAATGTAAATATCTCTCACTTATTTAAA,,0.094,0.0511,
ACAGACGAAGGAGCCGCAAAGAAGTTCTTAAGGGATGAATAATCCCTCAATTTAAATATCTCTCACTTATTTAAA,,,0.0838,
ACAGACGAAGGAGCCGCAAAGAAGTTATTAAGGGACGTATAATCCCTCAATATAAATATCTCTCACTTATTTAAA,,,0.705,
ACAGACGAAGGAGCCGCAAATAAGTTATAAAGGGATGTATAATCCCTCAATATAAATATCTCTCACTTATTTAAA,,0.384,,
ACAGACGAAGGAGCCGCAAAGAAATTATTAAGGTATGAATAATCCCTCAATATAAATATCTCTCACTTATTTAAA,,0.122,0.105,
CGACATGTCCCGCTTCTTTCATTAATCAGTTTGCAACTGTTTTGCTATATACATTTACCTTTTAAGAGGAGGAAT,0.686,,,
ACAGACGAAGGAGCCGCAAAGAAGATATTAAGGGATGAATAATCCCTCAATATAAATATCTCTCACTTATTTAAA,,0.68,0.751,0.612
ACAGACGAAGGAGCCGCAAAGAAGTTCTTAAGGGATGAATAATCCCACAATATAAATATCTCTCACTTATTTAAA,,0.119,,
